Data from patent US20130136748A1 (Ablynx, published 2013).
Where two headings read alike, the source gives them in different places.

Experiments:
[1] = molecular target: T1, human HER3-Fc (R&D Systems, 348-RB) (human, UniProt P21860 20-643); assay: HRG competition alphascreen
T1 construct: Bought; also called hHER3-Fc; Fc-HER3; Fc part of the bought chimera not given, not described

[2] = molecular target: T2, hHER3 full length (human, UniProt P21860 20-1342); assay: cell-based or functional assay
[3] = molecular target: T1, human HER3-Fc (R&D Systems, 348-RB); assay: HRG competition alphascreen; remark: listed apart in the source
[4] = molecular target: T1, human HER3-Fc (R&D Systems, 348-RB); assay: SPR, HER3-Fc captured by anti-Fc
[5] = molecular target: T2, hHER3 full length; assay: FACS, 400 nM, competitor 04F10-biotin
[6] = molecular target: T2, hHER3 full length; assay: cell-based or functional assay; remark: listed apart in the source
[7] = molecular target: T2, hHER3 full length; assay: FACS, 400 nM, competitor 23F05-biotin
[8] = molecular target: T3, human HER4 (human, UniProt Q15303 26-1308); assay: FACS CHO-HER4, 222 nM
T3 sequence (Q15303 26-1308 limits assumed): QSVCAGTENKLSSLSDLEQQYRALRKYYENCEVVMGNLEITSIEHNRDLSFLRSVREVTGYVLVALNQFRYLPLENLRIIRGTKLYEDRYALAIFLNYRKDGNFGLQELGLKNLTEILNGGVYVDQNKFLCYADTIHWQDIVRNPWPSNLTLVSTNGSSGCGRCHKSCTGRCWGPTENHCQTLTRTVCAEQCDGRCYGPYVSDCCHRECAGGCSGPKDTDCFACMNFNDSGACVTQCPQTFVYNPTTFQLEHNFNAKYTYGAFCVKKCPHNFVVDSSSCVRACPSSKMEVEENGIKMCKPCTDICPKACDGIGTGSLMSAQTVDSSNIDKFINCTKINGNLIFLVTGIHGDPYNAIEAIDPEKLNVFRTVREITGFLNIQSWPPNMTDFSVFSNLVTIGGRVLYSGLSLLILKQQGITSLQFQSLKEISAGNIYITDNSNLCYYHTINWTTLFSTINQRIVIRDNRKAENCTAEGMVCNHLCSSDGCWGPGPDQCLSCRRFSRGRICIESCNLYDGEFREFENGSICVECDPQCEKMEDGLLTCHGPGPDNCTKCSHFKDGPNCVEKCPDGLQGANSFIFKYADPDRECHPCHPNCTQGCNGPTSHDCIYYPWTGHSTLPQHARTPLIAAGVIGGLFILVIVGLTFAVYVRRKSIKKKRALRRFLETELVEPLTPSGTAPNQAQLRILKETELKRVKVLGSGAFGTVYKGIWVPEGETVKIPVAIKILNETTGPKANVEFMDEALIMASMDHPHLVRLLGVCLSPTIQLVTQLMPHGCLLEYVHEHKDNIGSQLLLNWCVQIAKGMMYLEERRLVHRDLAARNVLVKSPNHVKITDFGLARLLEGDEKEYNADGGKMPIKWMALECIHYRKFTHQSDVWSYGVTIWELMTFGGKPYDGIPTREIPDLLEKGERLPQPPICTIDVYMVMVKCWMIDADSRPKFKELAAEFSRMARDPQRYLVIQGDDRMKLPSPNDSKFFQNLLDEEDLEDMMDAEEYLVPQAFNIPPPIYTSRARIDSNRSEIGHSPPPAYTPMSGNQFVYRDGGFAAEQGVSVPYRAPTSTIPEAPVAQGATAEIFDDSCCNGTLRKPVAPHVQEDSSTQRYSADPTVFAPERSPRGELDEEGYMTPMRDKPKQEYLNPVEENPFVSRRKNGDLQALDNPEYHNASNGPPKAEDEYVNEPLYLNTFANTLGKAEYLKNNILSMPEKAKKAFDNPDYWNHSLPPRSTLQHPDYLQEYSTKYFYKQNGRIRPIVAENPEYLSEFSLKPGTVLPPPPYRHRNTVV

[9] = molecular target: T2, hHER3 full length; assay: FACS, 400 nM, competitor 21B02-biotin
[10] = molecular target: T4, human HER2 (human, UniProt P04626 23-1255); assay: FACS, CHO-HER2
T4 construct: also called hHER2

[11] = molecular target: T3, human HER4; assay: FACS CHO-HER4, 2000 nM
[12] = molecular target: T5, cHER3ECD (Maccaca fascicularis HER3 extracellular domain) (Macaca fascicularis, UniProt P21860 20-643 (human entry)); assay: ELISA, coated cHER3-ECD
T5 construct: also called cyno HER3ECD; cyno HER3-ECD
T5 chain: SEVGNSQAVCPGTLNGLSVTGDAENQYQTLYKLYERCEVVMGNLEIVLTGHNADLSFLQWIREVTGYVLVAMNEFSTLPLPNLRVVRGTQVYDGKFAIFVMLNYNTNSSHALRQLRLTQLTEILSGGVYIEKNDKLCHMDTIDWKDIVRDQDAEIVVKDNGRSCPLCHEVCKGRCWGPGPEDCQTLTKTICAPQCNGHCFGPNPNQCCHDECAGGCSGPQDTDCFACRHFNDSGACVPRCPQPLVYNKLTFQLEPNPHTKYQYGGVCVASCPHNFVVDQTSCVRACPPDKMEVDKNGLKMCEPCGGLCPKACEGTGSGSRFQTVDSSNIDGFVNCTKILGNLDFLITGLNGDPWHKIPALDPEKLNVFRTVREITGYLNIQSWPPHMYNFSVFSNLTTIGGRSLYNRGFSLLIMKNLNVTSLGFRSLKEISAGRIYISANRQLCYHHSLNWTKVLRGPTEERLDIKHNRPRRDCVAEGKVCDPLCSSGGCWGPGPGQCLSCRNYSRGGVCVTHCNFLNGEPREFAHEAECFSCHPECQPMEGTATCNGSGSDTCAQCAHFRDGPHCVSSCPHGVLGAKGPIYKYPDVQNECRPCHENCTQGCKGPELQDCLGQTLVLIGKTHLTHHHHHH

[13] = molecular target: T2, hHER3 full length; assay: FACS, 400 nM, competitor 04C07-biotin
[14] = molecular target: T4, human HER2; assay: FACS CHO-HER2, 667 nM
[15] = molecular target: T2, hHER3 full length; assay: cell-based or functional assay; remark: listed apart in the source
[16] = molecular target: T6, Chimeric chicken Her3-human domain 1 (AA1-206 human, AA207-642 chicken) (chicken/human chimera); assay: FACS, HEK293 with chimeric HER3
T6 construct: Transmembrane and extracellular regions, on HEK293 cells
T6 chain: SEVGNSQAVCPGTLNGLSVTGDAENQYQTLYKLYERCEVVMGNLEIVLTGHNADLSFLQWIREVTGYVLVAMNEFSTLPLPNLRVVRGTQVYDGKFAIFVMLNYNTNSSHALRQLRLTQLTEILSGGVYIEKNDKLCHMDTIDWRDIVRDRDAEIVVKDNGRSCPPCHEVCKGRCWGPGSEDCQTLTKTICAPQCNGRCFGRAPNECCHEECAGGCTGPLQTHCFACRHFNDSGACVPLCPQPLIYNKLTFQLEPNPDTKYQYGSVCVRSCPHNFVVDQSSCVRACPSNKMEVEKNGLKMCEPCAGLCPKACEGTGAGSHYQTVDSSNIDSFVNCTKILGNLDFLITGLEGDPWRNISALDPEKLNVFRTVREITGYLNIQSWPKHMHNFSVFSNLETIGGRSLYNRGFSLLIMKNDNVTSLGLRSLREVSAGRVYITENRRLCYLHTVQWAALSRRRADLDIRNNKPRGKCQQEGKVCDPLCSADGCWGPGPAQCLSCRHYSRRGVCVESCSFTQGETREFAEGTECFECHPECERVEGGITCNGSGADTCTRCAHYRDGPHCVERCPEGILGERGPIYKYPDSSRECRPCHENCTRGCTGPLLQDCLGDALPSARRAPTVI

[17] = molecular target: T7, human HER1 (human, UniProt P00533 25-1210); assay: FACS CHO-HER1, 667 nM
T7 construct: also called EGFR; ErbB1

[18] = molecular target: T7, human HER1; assay: FACS CHO-HER1, 2000 nM
[19] = molecular target: T8, hHER3 ECD (human HER3 extracellular domain) (human, UniProt P21860 20-643); assay: ELISA, coated hHER3-ECD
T8 construct: also called recombinant HER3-ECD

[20] = molecular target: T2, hHER3 full length; assay: FACS, 400 nM, competitor 18E08-biotin
[21] = molecular target: T4, human HER2; assay: FACS CHO-HER2, 2000 nM
[22] = molecular target: T2, hHER3 full length; assay: FACS, 400 nM, competitor 17C08-biotin
[23] = molecular target: T3, human HER4; assay: FACS CHO-HER4, 667 nM
[24] = molecular target: T7, human HER1; assay: FACS, CHO-HER1
[25] = molecular target: T4, human HER2; assay: FACS CHO-HER2, 222 nM
[26] = molecular target: T7, human HER1; assay: FACS CHO-HER1, 222 nM
[27] = molecular target: T2, hHER3 full length; assay: FACS competition with HRG1-β1-EGF, CHO-HER3
[28] = molecular target: T3, human HER4; assay: FACS, CHO-HER4
[29] = molecular target: T1, human HER3-Fc (R&D Systems, 348-RB); assay: HRG competition alphascreen; remark: listed apart in the source

B1: HER3MS00042 (VHH)
VHH: EVQLVESGGGLVQPGGSLRLSCAASGFTFSSYPMSWVRQAPGKGPAWVSTVSPGGITTSYADSVKGRFTISRDNSKNTLYLQMNSLRPEDTAVYYCLRDLNNRGQGTLVTVSS
notes: 04C07 + A14P, A74S, K83R, Q108L; also called HER3MS0042; 04C07 basic variant
IC50 [1]: 0.31 nM
IC50 pHER3, HRG1-β1 stimulated MCF7 [2]: 6.81e-09 M
IC50 [3]: 0.31 nM

B2: HER3MS00043 (VHH)
VHH: EVQLVESGGGLVQPGGSLRLSCAASGFTFSSYPMSWVRQAPGKGPEWVSTVSPGGITTSYADSVKGRFTISRDNSKNTLYLQMNSLRPEDTAVYYCLRDLNNRGQGTLVTVSS
notes: 04C07 basic + A46E; also called HER3MS0043
IC50 [3]: 1.02 nM

B3: HER3MS00044 (VHH)
VHH: EVQLVESGGGLVQPGGSLRLSCAASGFTFSSYPMSWVRQAPGKGPAWVSTVSPGGITTSYADSVKGRFTISRDNSKNTLYLQMNSLRPEDTAVYYCARDLNNRGQGTLVTVSS
notes: 04C07 basic + L93A; also called HER3MS0044
IC50 [3]: 1 nM

B4: 18B05 (VHH)
VHH: EVQLVESGGGLVQAGGSLRLSCAASGLTFGSAPMGWYRQAPGKERELVAYISGDERIWYGDSVKGRFTISRDTTKNTLYLQMNSLKPEDTAVYYCVSDVKVRHWGQGTQVTVSS
Kd [4]: 0.29 nM
kon [4]: 490000 M⁻¹ s⁻¹
% competition [5]: 31%
IC50, HRG1-β1 induced pAkt, MCF-7 [6]: 6.02e-09 M
inhibition of HRG1-β1 induced pERK1/2, MCF-7 [6]: < 50 % inhibition
% competition [7]: 0%
MCF [8]: 60
% competition [9]: 0%
binding result [10]: no binding (tested: 2000 nM)
MCF [11]: 96
EC50 [12]: 0.45 nM
% competition [13]: 98%
MCF [14]: 63
IC50, HRG1-β1 induced pHER3, MCF-7 [15]: 5.18e-09 M
IC50, HRG1-β1 induced pHER3, MDA-MB468 [15]: 3e-08 M
binding result [16]: binds
MCF [17]: 101
MCF [18]: 61
EC50 [19]: 0.4 nM
% competition [20]: 0%
MCF [21]: 77
% competition [22]: 0%
MCF [23]: 95
binding result [24]: no binding (tested: 2000 nM)
MCF [25]: 61
MCF [26]: 82
IC50 [27]: 16.1 nM
binding result [28]: no binding (tested: 2000 nM)

B5: 17E08 (VHH)
VHH: EVQLVESGGGLVQPGGSLRLSCSASGSIFGLNAMGWYRQTPGKERELVAGITSITRVGSTRYADSAKGRFTISGDYAKNTVYLQMNSLKPEDTGVYYCRMSIVKSGGADYWGQGTQVTVSS
Kd [4]: 0.11 nM
kon [4]: 363000 M⁻¹ s⁻¹
% competition [5]: 32%
IC50, HRG1-β1 induced pAkt, MCF-7 [6]: 5.78e-09 M
IC50, HRG1-β1 induced pERK1/2, MCF-7 [6]: 2.78e-09 M
% competition [7]: 0%
MCF [8]: 110
% competition [9]: 5%
binding result [10]: no binding (tested: 2000 nM)
MCF [11]: 242
EC50 [12]: 1.15 nM
% competition [13]: 100%
MCF [14]: 51
IC50, HRG1-β1 induced pHER3, MCF-7 [15]: 4.51e-09 M
IC50, HRG1-β1 induced pHER3, MDA-MB468 [15]: 2.46e-08 M
binding result [16]: binds
MCF [17]: 52
MCF [18]: 59
EC50 [19]: 1.02 nM
% competition [20]: 0%
MCF [21]: 73
% competition [22]: 0%
MCF [23]: 117
binding result [24]: no binding (tested: 2000 nM)
MCF [25]: 51
MCF [26]: 66
IC50 [27]: 75.9 nM
binding result [28]: no binding (tested: 2000 nM)

B6: HER3MS00046 (VHH)
VHH: EVQLVESGGGLVQPGGSLRLSCAASGRTYYLNAMGWFRQGPGKDREFVAAIDWSDGNKDYADSVKGRFTISRDNSKNTVYLQMNSLRPEDTAVYYCAADTPPWGPMIYIESYDSWGQGTLVTVSS
notes: 21F06 + A14P, A74S, K83R, Q108L; also called HER3MS0046; 21F06 basic variant
IC50 [29]: 0.28 nM

B7: HER3MS00047 (VHH)
VHH: EVQLVESGGGLVQPGGSLRLSCAASGRTYYLNAMGWFRQAPGKDREFVAAIDWSDGNKDYADSVKGRFTISRDNSKNTVYLQMNSLRPEDTAVYYCAADTPPWGPMIYIESYDSWGQGTLVTVSS
notes: 21F06 basic + G40A; also called HER3MS0047
IC50 [29]: 0.21 nM

B8: HER3MS00048 (VHH)
VHH: EVQLVESGGGLVQPGGSLRLSCAASGRTYYLNAMGWFRQGPGKEREFVAAIDWSDGNKDYADSVKGRFTISRDNSKNTVYLQMNSLRPEDTAVYYCAADTPPWGPMIYIESYDSWGQGTLVTVSS
notes: 21F06 basic + D44E; also called HER3MS0048
IC50 [29]: 0.27 nM
